Source: PMC4643140, “Low-Temperature-Induced Expression of Rice Ureidoglycolate Amidohydrolase is Mediated by a C-Repeat/Dehydration-Responsive Element that Specifically Interacts with Rice C-Repeat-Binding Factor 3”

Biological target: GST-OsCBF3 (Oryza sativa (rice), UniProt Q64MA1 1-238)
Assay: EMSA; 20 fmol probe, 1 ug protein; unlabeled E2 (2 pmol) competes; 20 uL reactions, Light-Shift Chemiluminescent EMSA Kit per manufacturer; buffer, salt, pH and temperature not stated
Conditions: protein: recombinant; tags: N-terminal GST (pGEX-4T-1); label: biotin on probe; blunt

Sequence of GST-OsCBF3 (Q64MA1 whole entry): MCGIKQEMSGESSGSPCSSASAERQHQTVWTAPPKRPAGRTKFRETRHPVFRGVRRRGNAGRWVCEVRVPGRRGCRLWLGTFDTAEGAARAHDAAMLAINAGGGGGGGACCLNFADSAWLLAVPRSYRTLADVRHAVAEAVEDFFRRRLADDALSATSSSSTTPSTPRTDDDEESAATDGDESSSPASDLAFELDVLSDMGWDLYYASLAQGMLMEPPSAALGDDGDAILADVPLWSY

B1: E2 (dsDNA)
DNA 1: AGCGTAGCTGCGGCGGAGAGCTCGCCGCCGACCCGCCCGGAGATTGGTTGCTTGCGCTG
DNA 2: CAGCGCAAGCAACCAATCTCCGGGCGGGTCGGCGGCGAGCTCTCCGCCGCAGCTACGCT
binding result: binds
